Earlier results in PMC4117426.
Like-named read-outs stand apart in the source and are kept apart here.

Columns and labels:
[1] = biological target: FtsZ tail peptide C-terminal tail (Escherichia coli) (UniProt P0A9A6)
[2] = biological target: FtsZ tail peptide C-terminal tail (Escherichia coli) (UniProt P0A9A6); remark: listed apart in the source

Sequence of FtsA (P0ABH0 whole entry): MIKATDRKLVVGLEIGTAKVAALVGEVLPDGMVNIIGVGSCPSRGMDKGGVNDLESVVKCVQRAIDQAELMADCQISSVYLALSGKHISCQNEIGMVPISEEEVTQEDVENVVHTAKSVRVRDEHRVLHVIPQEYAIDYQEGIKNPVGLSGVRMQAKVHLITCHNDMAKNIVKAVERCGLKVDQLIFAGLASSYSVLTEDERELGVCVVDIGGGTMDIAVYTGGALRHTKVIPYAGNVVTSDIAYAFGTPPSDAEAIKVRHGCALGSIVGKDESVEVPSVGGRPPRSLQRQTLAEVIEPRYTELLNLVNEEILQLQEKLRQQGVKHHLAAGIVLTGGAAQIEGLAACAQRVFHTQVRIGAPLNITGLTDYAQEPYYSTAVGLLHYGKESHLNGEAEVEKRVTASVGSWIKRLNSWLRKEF

In the case of ZipA (from UniProt P77173), the Kd [1] is given as 20 µM.
For FtsA (from UniProt P0ABH0), the Kd [2] is given as 50 µM.
